IntAct's records for PubMed 22536782

B1: GRB2-associated-binding protein 1 (Homo sapiens), Q13480 (parent)
chain: MSGGEVVCSGWLRKSPPEKKLKRYAWKRRWFVLRSGRLTGDPDVLEYYKNDHAKKPIRIIDLNLCQQVDAGLTFNKKEFENSYIFDINTIDRIFYLVADSEEEMNKWVRCICDICGFNPTEEDPVKPPGSSLQAPADLPLAINTAPPSTQADSSSATLPPPYQLINVPPHLETLGIQEDPQDYLLLINCQSKKPEPTRTHADSAKSTSSETDCNDNVPSHKNPASSQSKHGMNGFFQQQMIYDSPPSRAPSASVDSSLYNLPRSYSHDVLPKVSPSSTEADGELYVFNTPSGTSSVETQMRHVSISYDIPPTPGNTYQIPRTFPEGTLGQTSKLDTIPDIPPPRPPKPHPAHDRSPVETCSIPRTASDTDSSYCIPTAGMSPSRSNTISTVDLNKLRKDASSQDCYDIPRAFPSDRSSSLEGFHNHFKVKNVLTVGSVSSEELDENYVPMNPNSPPRQHSSSFTEPIQEANYVPMTPGTFDFSSFGMQVPPPAHMGFRSSPKTPPRRPVPVADCEPPPVDRNLKPDRKVKPAPLEIKPLPEWEELQAPVRSPITRSFARDSSRFPMSPRPDSVHSTTSSSDSHDSEENYVPMNPNLSSEDPNLFGSNSLDGGSSPMIKPKGDKQVEYLDLDLDSGKSTPPRKQKSSGSGSSVADERVDYVVVDQQKTLALKSTREAWTDGRQSTESETPAKSVK

Variants of: B1
Settings: with grb2_human GRB2, P62993
grb2_human GRB2, P62993, sequence (P62993 whole entry, looked up): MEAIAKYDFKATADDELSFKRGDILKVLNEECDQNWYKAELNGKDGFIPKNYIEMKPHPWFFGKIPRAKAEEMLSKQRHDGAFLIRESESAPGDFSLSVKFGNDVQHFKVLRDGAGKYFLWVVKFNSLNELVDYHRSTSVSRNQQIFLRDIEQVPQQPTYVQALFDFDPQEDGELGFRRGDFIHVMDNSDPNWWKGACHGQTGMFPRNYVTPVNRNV
In the case of P345A, the “effect of a mutation on the interaction” value is reported as “increasing interaction”. With K347A the “effect of a mutation on the interaction” value was “increasing interaction”. With P346A the “effect of a mutation on the interaction” value was “increasing interaction”. With R344A the “effect of a mutation on the interaction” value was “increasing interaction”.

Variants of: B1
Settings: with grb2_human GRB2, P62993
Remark: another data set of the same source
In the case of R521A, the “effect of a mutation on the interaction” value is reported as “decreasing interaction”. In the case of L523A, the “effect of a mutation on the interaction” value is reported as “decreasing interaction”. For K524A, the “effect of a mutation on the interaction” value was “decreasing interaction”. For N522A, the “effect of a mutation on the interaction” value was “decreasing interaction”.
